Results as given in article PMC2020459, “SELDI-TOF mass spectrometry of High-Density Lipoprotein” (Proteome Science, 2007).

Molecular target: the molecule itself
Assay: affinity purification with mass spectrometry; anti-apo A-II monoclonal antibody covalently bound on a PS-20 protein chip; plasma diluted 1:2 in TBS pH 7.4 or purified HDL, 2 h at room temperature; washes 4 x TBS, TBS-Tween 0.005 %, 5 mM Hepes; SELDI-TOF MS of captured native HDL

B1: apolipoprotein A-II (natural protein)
chain: not shown
notes: apolipoprotein A-II of human plasma HDL; dimer at about 17.4 kDa (17099, 17221 and 17352 m/z); Three dimer species were seen: the full dimer and dimers lacking one or two terminal (probably C-terminal) glutamine residues; The dimer is probably the disulfide-linked one (my surmise); Present on native HDL particles; also called apo A-II; source: endogenous, human plasma (HDL particles captured …)
For B1, the “stoichiometry N” value was 2.
